According to the supplement of paper PMC9732359:
± gives the uncertainty stated by the source.

Assay: protein stability index of a GFP-peptide fusion (yeast GPS) (PSI 1-4); higher = more stable; sorted into four equal gates, so the index is relative within each strain
In short: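 Peptides tiling yeast proteins in 17-residue segments were fused downstream of GFP, with Cherry expressed from the same plasmid. As a pooled library in yeast, mid-log cultures grown in leucine-free medium were sorted into four equal gates by GFP/Cherry fluorescence ratio. Gate plasmids were PCR-amplified and Illumina-sequenced, and barcodes linked reads to strains. Each peptide received a protein stability index equal to the sum of each gate's read frequency times its gate number.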

| Sequence | protein stability index (doa10∆) | protein stability index (pdr5∆) | protein stability index (san1∆) | protein stability index (ubr1∆) |
| --- | --- | --- | --- | --- |
| RRVYNRVLETTLVEFET [BRN1] | 2.21 ± 0.068 | 2.86 ± 0.098 | 2.69 ± 0.17 | 1.7 ± 0.071 |
| RSDREYPLLIRMSYGSH [SRP14] | 2.51 ± 0.077 | 2.3 ± 0.077 | 1.92 ± 0.077 | 2.23 ± 0.061 |
| RSLLQEAIETCKNFEKT [GAL11] | – | 3.14 ± 0.15 | 2.59 ± 0.19 | 3.09 ± 0.081 |
| RSMSGQPPTNVQPTIGQ [SNF5] | 2.74 ± 0.065 | 2.97 ± 0.071 | 3.01 ± 0.074 | 3.15 ± 0.036 |
| RSPPRPPSLKIIDGPKA [PRP28] | 2.23 ± 0.07 | 2.27 ± 0.079 | 1.98 ± 0.094 | 1.74 ± 0.041 |
| RSVDRAGRKFKSRRCDD [POP4] | 3.1 ± 0.079 | 3.16 ± 0.078 | 3.33 ± 0.071 | 3.18 ± 0.075 |
| RSVRIPWYNNPVSCIIQ [PRP8] | 2.33 ± 0.1 | 2.19 ± 0.068 | 2.02 ± 0.16 | 2.55 ± 0.06 |
| RTNNVPMIKAEETPSKT [NUT1] | 2.9 ± 0.1 | 2.86 ± 0.084 | 2.43 ± 0.097 | 2.66 ± 0.078 |
| RTPDSISVNSSSFSLTF [POP1] | 2.56 ± 0.045 | 2.62 ± 0.042 | 2.44 ± 0.045 | 2.37 ± 0.038 |
| RVAASFSQEALQYVVER [FAS1] | 1.06 ± 0.091 | 1.19 ± 0.11 | – | 1.14 ± 0.089 |
| RVASDTVHEMEEELKKL [SMC4] | 3.37 ± 0.21 | 3.33 ± 0.18 | 3.29 ± 0.12 | 3.63 ± 0.19 |
| RVGVVSILEAGDSDILT [RPL30] | 3.1 ± 0.057 | 2.97 ± 0.074 | 2.98 ± 0.07 | 3.03 ± 0.058 |
| RVHANLQCISQINQGVP [SNF11] | 1.49 ± 0.043 | 1.42 ± 0.043 | 1.47 ± 0.067 | 1.89 ± 0.055 |
| RVHRLLRRGNYAQRIGS [HTA1] | 2.65 ± 0.23 | 2.77 ± 0.19 | 2.64 ± 0.094 | 2.74 ± 0.24 |
| RVKAMEVDEKPTETYSD [RPT5] | 3.46 ± 0.1 | 3.32 ± 0.075 | 3.1 ± 0.074 | 3.12 ± 0.077 |
| RVNGSEFVHKYLGEGPR [RPT3] | 2.45 ± 0.057 | 2.88 ± 0.063 | 2.79 ± 0.056 | 3 ± 0.061 |
| RVPIRSEYKVAFPHLYN [PRP8] | 2.54 ± 0.069 | 2.27 ± 0.062 | 2.34 ± 0.083 | 2.08 ± 0.041 |
| RVQVGDIVTVGQCRPIS [RPS11A] | 3.14 ± 0.16 | 3.26 ± 0.082 | 3.07 ± 0.067 | 3.23 ± 0.074 |
| RVVRPKSLDAETEAEED [RPO21] | 2.25 ± 0.19 | 1.21 ± 0.13 | 1.21 ± 0.19 | 1.31 ± 0.29 |
| RVVYLKHLEDNTLLVTG [RPL6B] | 1.89 ± 0.29 | 1.12 ± 0.095 | 1.15 ± 0.2 | 1.16 ± 0.2 |
| RWEMEAFGEFSLEGCVE [FAS2] | 3.28 ± 0.17 | 3.36 ± 0.16 | 2.98 ± 0.095 | 2.83 ± 0.14 |
| RYENNDDDERVEYNLFT [BRN1] | 3.17 ± 0.1 | 3.27 ± 0.087 | 3.07 ± 0.064 | 3.04 ± 0.043 |
| RYISTLTLYLFQDYLTQ [IRR1] | 2.14 ± 0.2 | 1.76 ± 0.08 | 3.14 ± 0.24 | 3.38 ± 0.27 |
| RYLVGGNKIQKVLLDSK [RPS7A] | 1.24 ± 0.084 | 2.01 ± 0.18 | 1.51 ± 0.25 | 1.7 ± 0.17 |
